From article PMC9749489

Assays:
[1] = tested on: Putidaredoxin W106A mutant; test: continuous-wave EPR; conditions: other: continuous-wave EPR (high-spin to low-spin conversion of the heme)
[2] = tested on: Putidaredoxin D38A mutant; test: continuous-wave EPR; conditions: other: continuous-wave EPR (high-spin to low-spin conversion of the heme)

## MTSL-P450cam (P450cam labelled with MTSL at S48C and S190C)
[1]
  conversion from the high-spin to low-spin state: approximately 50% conversion
[2]
  conversion from the high-spin to low-spin state: approximately 50% conversion
